Reference: PMC9225624 (Autophagy, 2021)
Substitutions are numbered along the chain they refer to. Where two headings read alike, the source gives them in different places. One block for each binder: values may come before it.

Tests used:
[1] = biological target: T1, Arabidopsis ATG8f (tag-free) (Arabidopsis thaliana, UniProt Q8VYK7 1-117); assay: SEC
T1 sequence: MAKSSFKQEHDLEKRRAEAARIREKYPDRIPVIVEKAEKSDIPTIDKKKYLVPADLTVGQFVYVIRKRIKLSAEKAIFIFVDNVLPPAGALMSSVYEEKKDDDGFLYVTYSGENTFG

[2] = biological target: T2, GST-ATG8b (Arabidopsis thaliana, UniProt Q9XEB5 1-117); assay: pull-down
T2 sequence (looked up): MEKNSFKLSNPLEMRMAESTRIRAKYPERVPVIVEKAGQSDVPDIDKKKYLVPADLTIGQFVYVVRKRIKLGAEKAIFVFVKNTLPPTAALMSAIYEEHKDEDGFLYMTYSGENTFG

[3] = biological target: T3, GST-ATG8f (Arabidopsis thaliana, UniProt Q8VYK7 1-117); assay: pull-down
T3 sequence (looked up): T1 sequence

[4] = biological target: T4, GST-ATG8g (Arabidopsis thaliana, UniProt Q9LZZ9 1-117); assay: pull-down
T4 sequence (looked up): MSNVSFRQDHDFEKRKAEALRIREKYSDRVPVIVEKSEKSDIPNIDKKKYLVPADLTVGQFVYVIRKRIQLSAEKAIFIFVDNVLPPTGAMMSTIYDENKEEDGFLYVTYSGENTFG

[5] = biological target: T5, GST-ATG8e (Arabidopsis thaliana, UniProt Q8S926 1-118); assay: pull-down
T5 sequence (looked up): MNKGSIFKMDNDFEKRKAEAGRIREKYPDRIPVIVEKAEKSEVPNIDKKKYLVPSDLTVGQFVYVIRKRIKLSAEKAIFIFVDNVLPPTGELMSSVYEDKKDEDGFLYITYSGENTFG

[6] = biological target: T6, GST-ATG8h (Arabidopsis thaliana, UniProt Q8S925 1-119); assay: pull-down
T6 sequence (looked up): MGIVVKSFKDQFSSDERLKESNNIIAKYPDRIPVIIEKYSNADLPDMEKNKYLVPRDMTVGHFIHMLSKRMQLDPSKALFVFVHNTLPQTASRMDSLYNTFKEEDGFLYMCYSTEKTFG

[7] = biological target: T7, GST-ATG8a (Arabidopsis thaliana, UniProt Q8LEM4 1-117); assay: pull-down
T7 sequence (looked up): T2 sequence (looked up) with E2A, N4S, L8I, M14A, A17S, T20S, A24E, E28D, V30I, I58V

[8] = biological target: T8, GST-ATG8c (Arabidopsis thaliana, UniProt Q8S927 1-119); assay: pull-down
T8 sequence (looked up): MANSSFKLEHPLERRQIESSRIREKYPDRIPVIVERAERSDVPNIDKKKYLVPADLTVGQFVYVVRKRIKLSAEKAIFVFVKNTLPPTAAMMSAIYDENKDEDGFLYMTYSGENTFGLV

[9] = biological target: T9, GST-ATG8i (Arabidopsis thaliana, UniProt Q9LRP7 1-115); assay: pull-down
T9 sequence (looked up): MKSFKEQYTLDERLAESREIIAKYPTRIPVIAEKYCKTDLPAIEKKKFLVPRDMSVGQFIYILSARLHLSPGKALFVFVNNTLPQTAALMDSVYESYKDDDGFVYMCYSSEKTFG

[10] = biological target: T10, GST-ATG8d (Arabidopsis thaliana, UniProt Q9SL04 1-120); assay: pull-down
T10 sequence (looked up): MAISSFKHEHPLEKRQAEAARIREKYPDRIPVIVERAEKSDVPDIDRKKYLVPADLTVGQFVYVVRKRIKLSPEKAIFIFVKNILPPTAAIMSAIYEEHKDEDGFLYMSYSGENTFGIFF

[11] = biological target: T11, GST-ATG8f (Y26E R29E) (Arabidopsis thaliana, UniProt Q8VYK7 1-117, Y26E | R29E); assay: pull-down
T11 sequence (looked up): T1 sequence with Y26E, R29E

[12] = biological target: T12, GST-ATG8f R29E (Arabidopsis thaliana, UniProt Q8VYK7 1-117, R29E); assay: pull-down
T12 sequence (looked up): T1 sequence with R29E

[13] = biological target: T13, GST-ATG8f Y26E (Arabidopsis thaliana, UniProt Q8VYK7 1-117, Y26E); assay: pull-down
T13 sequence (looked up): T1 sequence with Y26E

[14] = biological target: T14, GST-ATG8f K47E (Arabidopsis thaliana, UniProt Q8VYK7 1-117, K47E); assay: pull-down
T14 sequence (looked up): T1 sequence with K47E

[15] = biological target: T1, Arabidopsis ATG8f (tag-free); assay: pull-down
[16] = biological target: T3, GST-ATG8f; assay: pull-down; remark: listed apart in the source

binding result [1]: binds
binding result [2]: binds
binding result [3]: binds
binding result [4]: binds
binding result [5]: binds
binding result [6]: binds
binding result [7]: binds
binding result [8]: binds
binding result [9]: binds
binding result [10]: binds
binding result [11]: binds
binding result [12]: binds
binding result [13]: binds
binding result [14]: binds
B1: SH3 domain of SH3P2, SH3P2 (279-368) (domain or fragment, Arabidopsis thaliana, UniProt Q8VWF1 279-368, looked up)
chain: SYEEANGVFASQMHDTSTDSMGYFLGEVLFPYHGVTDVELSLSTGEYVVVRKVTGSGWAEGECKGKAGWFPYGYIERRERVLASKVSEVF

binding result [15]: binds
B2: NBR1 AIM peptide (657-667 aa) (peptide)
peptide: GVSEWDPILEE

binding result [16]: binds
binding result [1]: binds
B3: UBA domain (619-704 aa) of NBR1 (domain or fragment, Arabidopsis thaliana, UniProt Q9SB64 619-704, looked up)
chain: EITMLKELEEMGFKEIDLNKEILRDNEYNLEQSVDALCGVSEWDPILEELQEMGFCDDVTNKRLLKKNNGSIKGVVMDLLTGEKEA
